From IntAct's records for PubMed 9355745 come the findings set out here.

B1: Tyrosine-protein phosphatase non-receptor type 1 (Homo sapiens), P18031 (parent)
chain: MEMEKEFEQIDKSGSWAAIYQDIRHEASDFPCRVAKLPKNKNRNRYRDVSPFDHSRIKLHQEDNDYINASLIKMEEAQRSYILTQGPLPNTCGHFWEMVWEQKSRGVVMLNRVMEKGSLKCAQYWPQKEEKEMIFEDTNLKLTLISEDIKSYYTVRQLELENLTTQETREILHFHYTTWPDFGVPESPASFLNFLFKVRESGSLSPEHGPVVVHCSAGIGRSGTFCLADTCLLLMDKRKDPSSVDIKKVLLEMRKFRMGLIQTADQLRFSYLAVIEGAKFIMGDSSVQDQWKELSHEDLEPPPEHIPPPPRPPKRILEPHNGKCREFFPNHQWVKEETQEDKDCPIKEEKGSPLNAAPYGIESMSQDTEVRSRVVGGSLRGAQAASPAKGEPSLPEKDEDHALSYWKPFLVNMCVATVLTAGAYLCYRFLFNSNT

The variants in this experiment derive from B1. The conditions noted are these: with pgfrb_human PDGFRB.
C215S: the “effect of a mutation on the interaction” value is reported as “increasing interaction”.
